How the values were obtained:
[1] = biological target: T1, insulin receptor extracellular domain (EC-IR) (UniProt P06213 28-956); assay: filter binding with RT-qPCR
[2] = biological target: T1, insulin receptor extracellular domain …; assay: ELASA

T1 sequence (P06213 28-956): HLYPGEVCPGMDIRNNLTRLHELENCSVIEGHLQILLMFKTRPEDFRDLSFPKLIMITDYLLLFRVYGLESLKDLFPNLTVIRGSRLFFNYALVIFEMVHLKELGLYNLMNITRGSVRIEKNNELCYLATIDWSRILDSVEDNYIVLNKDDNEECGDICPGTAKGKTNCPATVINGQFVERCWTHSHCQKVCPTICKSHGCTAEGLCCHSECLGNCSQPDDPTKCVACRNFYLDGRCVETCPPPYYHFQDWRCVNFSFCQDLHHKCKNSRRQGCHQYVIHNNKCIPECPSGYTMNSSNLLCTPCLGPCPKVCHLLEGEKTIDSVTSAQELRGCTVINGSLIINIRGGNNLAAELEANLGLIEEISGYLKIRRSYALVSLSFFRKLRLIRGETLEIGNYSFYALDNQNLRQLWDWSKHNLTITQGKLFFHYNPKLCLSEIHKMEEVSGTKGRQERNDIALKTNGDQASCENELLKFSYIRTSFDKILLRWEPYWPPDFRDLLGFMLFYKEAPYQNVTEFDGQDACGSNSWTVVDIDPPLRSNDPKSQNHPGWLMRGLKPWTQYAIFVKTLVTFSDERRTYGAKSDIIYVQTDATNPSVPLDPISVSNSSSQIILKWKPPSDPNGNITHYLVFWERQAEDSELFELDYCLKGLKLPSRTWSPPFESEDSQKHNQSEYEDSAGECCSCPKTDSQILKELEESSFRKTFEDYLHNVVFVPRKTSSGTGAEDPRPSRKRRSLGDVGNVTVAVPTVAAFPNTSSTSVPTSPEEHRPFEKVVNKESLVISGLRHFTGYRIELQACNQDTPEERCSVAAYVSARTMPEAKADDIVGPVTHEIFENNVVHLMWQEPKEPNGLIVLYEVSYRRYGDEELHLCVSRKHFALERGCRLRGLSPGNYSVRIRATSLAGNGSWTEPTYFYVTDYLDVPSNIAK

B1: GL56 (seq5/Gi-2) (XNA)
RNA: GGAGACAAGAAUAAACGCUCAAUGAUUUUGCAGCACUUCUUGUUAUCUUAACGAACUGUUGAUGAUUCGACAGGAGGCUCACAACAGGC
modifications: 2'-fluoro pyrimidines (all C and U), RNA purines
B1: binds [1].

B2: GL56 5'-biotin (printed as GL56.T in ELASA methods) (XNA)
RNA: B1 RNA
modifications: 2'-fluoro pyrimidines (all C and U), RNA purines
B2: binds [2].

Reference: PMC5056995
